{
  "source": "IntAct's records for PubMed 31515488",
  "parents": {"B1": {"name": "Inactive peptidyl-prolyl cis-trans isomerase FKBP6 (Homo sapiens), O75344 (parent)", "chain": "MGGSALNQGVLEGDDAPGQSLYERLSQRMLDISGDRGVLKDVIREGAGDLVAPDASVLVKYSGYLEHMDRPFDSNYFRKTPRLMKLGEDITLWGMELGLLSMRRGELARFLFKPNYAYGTLGCPPLIPPNTTVLFEIELLDFLDCAESDKFCALSAEQQDQFPLQKVLKVAATEREFGNYLFRQNRFYDAKVRYKRALLLLRRRSAPPEEQHLVEAAKLPVLLNLSFTYLKLDRPTIALCYGEQALIIDQKNAKALFRCGQACLLLTEYQKARDFLVRAQKEQPFNHDINNELKKLASCYRDYVDKEKEMWHRMFAPCGDGSTAGES", "partner": "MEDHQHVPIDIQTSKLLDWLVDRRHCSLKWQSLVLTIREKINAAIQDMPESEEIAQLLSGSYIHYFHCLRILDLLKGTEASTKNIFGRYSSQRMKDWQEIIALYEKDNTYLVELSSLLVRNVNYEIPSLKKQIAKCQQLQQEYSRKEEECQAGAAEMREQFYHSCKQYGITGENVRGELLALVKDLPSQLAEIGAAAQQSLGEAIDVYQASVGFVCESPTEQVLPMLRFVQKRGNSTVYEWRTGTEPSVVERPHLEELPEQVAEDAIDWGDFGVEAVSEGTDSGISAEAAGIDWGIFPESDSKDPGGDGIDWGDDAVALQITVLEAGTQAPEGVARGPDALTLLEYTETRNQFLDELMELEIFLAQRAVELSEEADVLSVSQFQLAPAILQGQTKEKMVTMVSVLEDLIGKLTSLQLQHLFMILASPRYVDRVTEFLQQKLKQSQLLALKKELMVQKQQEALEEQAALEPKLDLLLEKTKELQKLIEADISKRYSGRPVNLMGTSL"}, "B2": {"name": "Alpha-taxilin (Homo sapiens), P40222 (parent)", "chain": "MKNQDKKNGAAKQSNPKSSPGQPEAGPEGAQERPSQAAPAVEAEGPGSSQAPRKPEGAQARTAQSGALRDVSEELSRQLEDILSTYCVDNNQGGPGEDGAQGEPAEPEDAEKSRTYVARNGEPEPTPVVNGEKEPSKGDPNTEEIRQSDEVGDRDHRRPQEKKKAKGLGKEITLLMQTLNTLSTPEEKLAALCKKYAELLEEHRNSQKQMKLLQKKQSQLVQEKDHLRGEHSKAVLARSKLESLCRELQRHNRSLKEEGVQRAREEEEKRKEVTSHFQVTLNDIQLQMEQHNERNSKLRQENMELAERLKKLIEQYELREEHIDKVFKHKDLQQQLVDAKLQQAQEMLKEAEERHQREKDFLLKEAVESQRMCELMKQQETHLKQQLALYTEKFEEFQNTLSKSSEVFTTFKQEMEKMTKKIKKLEKETTMYRSRWESSNKALLEMAEEKTVRDKELEGLQVKIQRLEKLCRALQTERNDLNKRVQDLSAGGQGSLTDSGPERRPEGPGAQAPSSPRVTEAPCYPGAPSTEASGQTGPQEPTSARA", "partner": "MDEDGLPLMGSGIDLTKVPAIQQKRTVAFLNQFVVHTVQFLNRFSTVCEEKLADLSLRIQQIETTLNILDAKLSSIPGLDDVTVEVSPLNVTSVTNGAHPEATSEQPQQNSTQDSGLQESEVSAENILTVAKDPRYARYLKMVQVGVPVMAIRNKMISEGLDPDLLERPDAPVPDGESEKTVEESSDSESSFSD"}, "B3": {"name": "Defensin-6 (Homo sapiens), Q01524 (parent)", "chain": "MRTLTILTAVLLVALQAKAEPLQAEDDPLQAKAYEADAQEQRGANDQDFAVSFAEDASSSLRALGSTRAFTCHCRRSCYSTEYSYGTCTVMGINHRFCCL"}, "B4": {"name": "BAG family molecular chaperone regulator 5 (Homo sapiens), Q9UL15 (parent)", "chain": "MDMGNQHPSISRLQEIQKEVKSVEQQVIGFSGLSDDKNYKKLERILTKQLFEIDSVDTEGKGDIQQARKRAAQETERLLKELEQNANHPHRIEIQNIFEEAQSLVREKIVPFYNGGNCVTDEFEEGIQDIILRLTHVKTGGKISLRKARYHTLTKICAVQEIIEDCMKKQPSLPLSEDAHPSVAKINFVMCEVNKARGVLIALLMGVNNNETCRHLSCVLSGLIADLDALDVCGRTEIRNYRREVVEDINKLLKYLDLEEEADTTKAFDLRQNHSILKIEKVLKRMREIKNELLQAQNPSELYLSSKTELQGLIGQLDEVSLEKNPCIREARRRAVIEVQTLITYIDLKEALEKRKLFACEEHPSHKAVWNVLGNLSEIQGEVLSFDGNRTDKNYIRLEELLTKQLLALDAVDPQGEEKCKAARKQAVRLAQNILSYLDLKSDEWEY"}, "B5": {"name": "Dynein light chain 2, cytoplasmic (Homo sapiens), Q96FJ2 (parent)", "chain": "MSDRKAVIKNADMSEDMQQDAVDCATQAMEKYNIEKDIAAYIKKEFDKKYNPTWHCIVGRNFGSYVTHETKHFIYFYLGQVAILLFKSG", "partner": "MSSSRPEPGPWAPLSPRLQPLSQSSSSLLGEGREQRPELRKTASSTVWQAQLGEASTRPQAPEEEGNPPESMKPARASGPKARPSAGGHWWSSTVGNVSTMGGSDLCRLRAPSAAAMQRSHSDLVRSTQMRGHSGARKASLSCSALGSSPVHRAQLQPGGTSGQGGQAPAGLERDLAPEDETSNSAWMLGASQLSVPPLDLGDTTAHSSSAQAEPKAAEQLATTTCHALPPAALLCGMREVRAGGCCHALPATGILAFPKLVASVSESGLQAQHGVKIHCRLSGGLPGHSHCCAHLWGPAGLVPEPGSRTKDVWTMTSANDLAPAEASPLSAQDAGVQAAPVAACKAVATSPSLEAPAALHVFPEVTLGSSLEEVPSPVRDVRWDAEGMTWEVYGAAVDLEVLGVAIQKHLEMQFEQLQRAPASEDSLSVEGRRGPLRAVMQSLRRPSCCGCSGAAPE"}, "B6": {"name": "E3 ubiquitin-protein ligase TRAIP (Homo sapiens), Q9BWF2 (parent)", "chain": "MPIRALCTICSDFFDHSRDVAAIHCGHTFHLQCLIQWFETAPSRTCPQCRIQVGKRTIINKLFFDLAQEEENVLDAEFLKNELDNVRAQLSQKDKEKRDSQVIIDTLRDTLEERNATVVSLQQALGKAEMLCSTLKKQMKYLEQQQDETKQAQEEARRLRSKMKTMEQIELLLQSQRPEVEEMIRDMGVGQSAVEQLAVYCVSLKKEYENLKEARKASGEVADKLRKDLFSSRSKLQTVYSELDQAKLELKSAQKDLQSADKEIMSLKKKLTMLQETLNLPPVASETVDRLVLESPAPVEVNLKLRRPSFRDDIDLNATFDVDTPPARPSSSQHGYYEKLCLEKSHSPIQDVPKKICKGPRKESQLSLGGQSCAGEPDEELVGAFPIFVRNAILGQKQPKRPRSESSCSKDVVRTGFDGLGGRTKFIQPTDTVMIRPLPVKPKTKVKQRVRVKTVPSLFQAKLDTFLWS"}, "B7": {"name": "Protein-lysine methyltransferase METTL21C (Homo sapiens), Q5VZV1 (parent)", "chain": "MDVCLSSAQQPGRRGEGLSSPGGWLEAEKKGAPQKDSTGGVLEESNKIEPSLHSLQKFVPTDYASYTQEHYRFAGKEIVIQESIESYGAVVWPGAMALCQYLEEHAEELNFQDAKILEIGAGPGLVSIVASILGAQVTATDLPDVLGNLQYNLLKNTLQCTAHLPEVKELVWGEDLDKNFPKSAFYYDYVLASDVVYHHYFLDKLLTTMVYLSQPGTVLLWANKFRFSTDYEFLDKFKQVFDTTLLAEYPESSVKLFKGILKWD"}, "B8": {"name": "KH domain-containing, RNA-binding, signal transduction-associated protein 2 (Homo sapiens), Q5VWX1 (parent)", "chain": "MEEEKYLPELMAEKDSLDPSFVHASRLLAEEIEKFQGSDGKKEDEEKKYLDVISNKNIKLSERVLIPVKQYPKFNFVGKLLGPRGNSLKRLQEETGAKMSILGKGSMRDKAKEEELRKSGEAKYAHLSDELHVLIEVFAPPGEAYSRMSHALEEIKKFLVPDYNDEIRQEQLRELSYLNGSEDSGRGRGIRGRGIRIAPTAPSRGRGGAIPPPPPPGRGVLTPRGSTVTRGALPVPPVARGVPTPRARGAPTVPGYRAPPPPAHEAYEEYGYDDGYGGEYDDQTYETYDNSYATQTQSVPEYYDYGHGVSEDAYDSYAPEEWATTRSSLKAPPQRSARGGYREHPYGRY", "partner": "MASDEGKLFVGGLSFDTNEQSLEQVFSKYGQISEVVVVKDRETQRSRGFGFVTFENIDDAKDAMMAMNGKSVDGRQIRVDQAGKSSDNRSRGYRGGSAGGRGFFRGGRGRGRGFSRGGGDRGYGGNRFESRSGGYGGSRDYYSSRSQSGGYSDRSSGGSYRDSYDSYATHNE"}, "B9": {"name": "Tripartite motif-containing protein 59 (Homo sapiens), Q8IWR1 (parent)", "chain": "MHNFEEELTCPICYSIFEDPRVLPCSHTFCRNCLENILQASGNFYIWRPLRIPLKCPNCRSITEIAPTGIESLPVNFALRAIIEKYQQEDHPDIVTCPEHYRQPLNVYCLLDKKLVCGHCLTIGQHHGHPIDDLQSAYLKEKDTPQKLLEQLTDTHWTDLTHLIEKLKEQKSHSEKMIQGDKEAVLQYFKELNDTLEQKKKSFLTALCDVGNLINQEYTPQIERMKEIREQQLELMALTISLQEESPLKFLEKVDDVRQHVQILKQRPLPEVQPVEIYPRVSKILKEEWSRTEIGQIKNVLIPKMKISPKRMSCSWPGKDEKEVEFLKILNIVVVTLISVILMSILFFNQHIITFLSEITLIWFSEASLSVYQSLSNSLHKVKNILCHIFYLLKEFVWKIVSH", "partner": "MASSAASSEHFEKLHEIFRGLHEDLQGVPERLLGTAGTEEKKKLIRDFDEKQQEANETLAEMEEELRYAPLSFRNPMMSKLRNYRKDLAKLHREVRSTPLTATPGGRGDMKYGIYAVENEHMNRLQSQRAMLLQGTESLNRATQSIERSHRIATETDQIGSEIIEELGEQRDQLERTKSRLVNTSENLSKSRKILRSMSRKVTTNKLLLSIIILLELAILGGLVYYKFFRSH"}, "B10": {"name": "Protein LDOC1 (Homo sapiens), O95751 (parent)", "chain": "MVDELVLLLHALLMRHRALSIENSQLMEQLRLLVCERASLLRQVRPPSCPVPFPETFNGESSRLPEFIVQTASYMLVNENRFCNDAMKVAFLISLLTGEAEEWVVPYIEMDSPILGDYRAFLDEMKQCFGWDDDEDDDDEEEEDDY", "partner": "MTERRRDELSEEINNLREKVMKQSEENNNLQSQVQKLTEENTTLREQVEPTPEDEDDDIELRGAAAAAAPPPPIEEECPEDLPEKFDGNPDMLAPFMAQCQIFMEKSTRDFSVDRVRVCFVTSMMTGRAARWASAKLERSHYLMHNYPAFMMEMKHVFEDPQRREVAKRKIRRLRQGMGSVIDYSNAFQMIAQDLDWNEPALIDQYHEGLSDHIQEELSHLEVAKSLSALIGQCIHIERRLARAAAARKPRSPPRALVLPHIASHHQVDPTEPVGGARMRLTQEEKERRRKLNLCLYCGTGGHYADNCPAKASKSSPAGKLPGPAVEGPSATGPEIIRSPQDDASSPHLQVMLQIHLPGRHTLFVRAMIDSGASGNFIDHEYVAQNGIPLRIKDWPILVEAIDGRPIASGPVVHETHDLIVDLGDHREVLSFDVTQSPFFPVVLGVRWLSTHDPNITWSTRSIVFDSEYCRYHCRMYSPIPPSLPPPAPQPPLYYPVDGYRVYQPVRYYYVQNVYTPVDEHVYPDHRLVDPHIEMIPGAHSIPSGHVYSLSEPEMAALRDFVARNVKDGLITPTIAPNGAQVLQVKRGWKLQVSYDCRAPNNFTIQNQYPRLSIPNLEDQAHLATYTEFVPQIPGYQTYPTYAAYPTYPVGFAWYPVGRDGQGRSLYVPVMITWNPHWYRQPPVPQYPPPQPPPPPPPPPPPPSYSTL"}},
  "data": [
    {"variants_of": "B1", "details": "with ck5p3_human CDK5RAP3, Q96JB5", "values": [
      {"variant": "H287N", "effect of a mutation on the interaction": "with no effect"}
    ]},
    {"variants_of": "B2", "details": "with wasc3_human WASHC3, Q9Y3C0", "values": [
      {"variant": "S514R", "effect of a mutation on the interaction": "with no effect"},
      {"variant": "P541S", "effect of a mutation on the interaction": "with no effect"}
    ]},
    {"variants_of": "B3", "details": "with ubql1_human UBQLN1, Q9UMX0", "values": [
      {"variant": "E35D", "effect of a mutation on the interaction": "with no effect"},
      {"variant": "D46E", "effect of a mutation on the interaction": "with no effect"}
    ]},
    {"variants_of": "B4", "details": "with thap1_human THAP1, Q9NVV9", "values": [
      {"variant": "I279L", "effect of a mutation on the interaction": "with no effect"}
    ]},
    {"variants_of": "B5", "details": "with grin2_human GPRIN2, O60269", "values": [
      {"variant": "N33S", "effect of a mutation on the interaction": "with no effect"}
    ]},
    {"variants_of": "B6", "details": "with mare2_human MAPRE2, Q15555", "values": [
      {"variant": "Q428H", "effect of a mutation on the interaction": "with no effect"}
    ]},
    {"variants_of": "B7", "details": "with eloc_human ELOC", "values": [
      {"variant": "G15R", "effect of a mutation on the interaction": "with no effect"}
    ]},
    {"variants_of": "B8", "details": "with cirbp_human CIRBP", "values": [
      {"variant": "P333L", "effect of a mutation on the interaction": "with no effect"}
    ]},
    {"variants_of": "B9", "details": "with vti1b_human VTI1B", "values": [
      {"variant": "I277V", "effect of a mutation on the interaction": "with no effect"}
    ]},
    {"variants_of": "B10", "details": "with peg10_human PEG10, Q86TG7", "values": [
      {"variant": "L12H", "effect of a mutation on the interaction": "with no effect"}
    ]}
  ]
}
